Assay results from patent publication US12616737B2, “Liquid formulations of amylin analogues” (Zealand Pharma A/S, priority 2022, dated 2026).
Numbered stars: 1 amine (or outer) side, 2 acyl side, 3 side chain; on linkers, the order of the positions; unused ones are H or OH. Bridge positions count the residues as written; N and C are the ends. Square brackets hold non-standard residues; d marks the D form. * marks the point of attachment. C20 diacid = O=C(O)CCCCCCCCCCCCCCCCCCC(=O)*; γGlu = O=C(O)[C@H](CCC(=O)[*:2])N[*:1]; Hyp = O=C(O)[C@@H]1C[C@@H](O)CN1; NMeI = CC[C@H](C)[C@H](NC)C(=O)O; Aad = N[C@@H](CCCC(=O)O)C(=O)O; Sar = CNCC(=O)O

Key:
[1] = human trials; cited from earlier work
[2] = Solubility test: CPD 1 dissolved in alkaline MQW by stirring, visual control; format: physicochemical; conditions: in MQW (alkaline, NaOH)
Procedure: To test solubility, CPD 1 was dissolved in alkaline MQW (pH adjusted with NaOH) by stirring.

pI of the peptide = format: physicochemical
hAMYR2 = hAMYR2 (Homo sapiens, UniProt P30988); conditions: as described in WO 2018/046719; cited from earlier work
hAMYR1 = hAMYR1 (Homo sapiens, UniProt P30988); conditions: as described in WO 2018/046719; cited from earlier work
[3] = Physical stability evaluation by ThT-stress test (ASSAY IIId), lag-time of fibril formation; format: physicochemical; conditions: for ThT lag time: 1 mg/ml CPD 1, 20 mM TRIS, 118 mM NaCl
Procedure: Physical Stability Evaluation by ThT-Stress Test (ASSAY IIId)
A 1 mM ThT stock solution was prepared and 12 μL was mixed with 288 μL of CPD 1 formulation. Samples were loaded in a 96-well black fluorescence plate (clear bottom) in duplicate 2×150 μL. Data were collected in a Fluorescence Plate reader from Biotek Synergy™ H4 Hybrid Multi-Mode at fixed intervals of 10 min, each preceded by 300 s of auto mixing (agitation), over a period of up to 60 hours at 40° C. Physical stability, expressed as lag-time of fibril formation (in hours), was defined as the intersection between two linear regressions representing the initial stable phase and the growth phase.
Physical stability was evaluated in terms of fibril formation by ThT-stress test measured over 60 hours at 40° C. Initial peptide particle size (z-average) was also determined by DLS.

[4] = Dynamic light scattering (DLS) (ASSAY IIIc), peptide particle size; format: physicochemical; conditions: initial z-average by DLS, 1 mg/ml CPD 1, 20 mM TRIS, 118 mM NaCl
Procedure: Dynamic Light Scattering (DLS) (ASSAY IIIc)
Peptide particle size distribution was determined with dynamic light scattering analysis. The standard DLS experiment is conducted in a nunc 96 well plate with a sample volume of 165 μL and measured in a DynaPro Plate reader II instrument. Typically used parameters were temperature at 25° C., acquisition time 2 s, 50 acquisitions per sample, Detection: Hydrodynamic radius Rh, Correlation function cut off [μs]: […] and Peak radius cut off [nm]: 0.5-1000.

hAMYR3 = target: T1, hAMYR3 (Homo sapiens, UniProt P30988); conditions: as described in WO 2018/046719; cited from earlier work
T1 sequence (P30988 25-474): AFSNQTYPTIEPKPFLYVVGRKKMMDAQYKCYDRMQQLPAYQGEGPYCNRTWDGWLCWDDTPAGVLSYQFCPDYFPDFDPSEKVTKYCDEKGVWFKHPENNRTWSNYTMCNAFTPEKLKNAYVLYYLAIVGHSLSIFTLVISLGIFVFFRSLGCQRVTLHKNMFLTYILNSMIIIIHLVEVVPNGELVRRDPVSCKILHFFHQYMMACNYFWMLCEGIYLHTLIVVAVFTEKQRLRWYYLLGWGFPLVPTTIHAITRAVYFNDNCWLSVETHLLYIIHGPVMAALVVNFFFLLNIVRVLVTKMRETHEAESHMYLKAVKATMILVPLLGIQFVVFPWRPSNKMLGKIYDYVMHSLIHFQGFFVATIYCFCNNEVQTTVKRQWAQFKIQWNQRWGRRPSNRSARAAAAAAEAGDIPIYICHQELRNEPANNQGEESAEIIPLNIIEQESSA
T1 sequence (O60896 24-148 partner): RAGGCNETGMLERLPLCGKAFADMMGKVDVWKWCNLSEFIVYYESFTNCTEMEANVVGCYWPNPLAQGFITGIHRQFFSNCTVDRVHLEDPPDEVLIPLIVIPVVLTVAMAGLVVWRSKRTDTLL

Chain of hAMYR2 (O60895 43-175 partner, one chain of several): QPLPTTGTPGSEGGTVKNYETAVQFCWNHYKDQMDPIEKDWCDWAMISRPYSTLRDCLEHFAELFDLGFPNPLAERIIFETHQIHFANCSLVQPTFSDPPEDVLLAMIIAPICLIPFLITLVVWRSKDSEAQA
Chain of hAMYR1 (O60894 27-148 partner, one chain of several): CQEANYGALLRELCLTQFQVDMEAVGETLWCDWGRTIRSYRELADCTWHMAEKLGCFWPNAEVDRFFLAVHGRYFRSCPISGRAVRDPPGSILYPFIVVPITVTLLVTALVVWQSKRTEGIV

## CC[C@H](C)[C@H](NC(=O)[C@@H]1CCCN1C(=O)CNC(=O)[C@H](Cc1ccccc1)NC(=O)[C@H](CC(N)=O)NC(=O)[C@H](CC(N)=O)NC(=O)[C@H](CO)NC(=O)[C@H](CO)NC(=O)[C@H](Cc1c[nH]cn1)NC(=O)[C@@H](NC(=O)[C@H](CC(C)C)NC(=O)[C@H](Cc1ccccc1)NC(=O)[C@H](CC(N)=O)NC(=O)[C@H](C)NC(=O)[C@H](CC(C)C)NC(=O)[C@H](CCCNC(=N)N)NC(=O)[C@H](CCC(N)=O)NC(=O)[C@@H](NC(=O)[C@H](C)NC(=O)[C@@H]1CSSC[C@H](NC(=O)[C@@H](N)CCCCN)C(=O)N[C@@H](CC(N)=O)C(=O)N[C@@H]([C@@H](C)O)C(=O)N[C@@H](C)C(=O)N[C@@H]([C@@H](C)O)C(=O)N1)[C@@H](C)O)C(C)C)C(=O)N[C@@H](CC(C)C)C(=O)N1CCC[C@H]1C(=O)N1CCC[C@H]1C(=O)N[C@H](C(=O)N[C@@H](CC(N)=O)C(=O)N[C@H](C(=O)NCC(=O)N[C@@H](CO)C(=O)N[C@@H](CC(N)=O)C(=O)N[C@H](C(=O)N[C@@H](Cc1ccc(O)cc1)C(N)=O)[C@@H](C)O)C(C)C)[C@@H](C)O [pramlintide]
[1]
  effect on body weight: reduce body weight or reduce weight gain

## [19CD]-isoGlu-RD( )GTATK( )ATERLA-Aad-FLQRSSF-Gly(Me)-A-Ile(Me)-LSSTEVGSNT-Hyp-NH2 ({C20 diacid}-[γGlu]RDGTATKATERLA[Aad]FLQRSSF[Sar]A[NMeI]LSSTEVGSNT[Hyp]-NH2; lactam 3-8) [CPD 1]
[2]
  Concentration at which CPD 1 could be dissolved to a clear solution: up to 50 mg/ml
pI of the peptide
  pI of the peptide: 4.36
hAMYR2
  agonist activity at hAMYR2: agonist activity
hAMYR1
  agonist activity at hAMYR1: agonist activity
[3]; pH 5.8, ThT-stress test over 60 hours at 40° C.
  ThT lag time: >60 h
[3]; pH 6.0, over 60 hours at 40° C.
  ThT lag time: >60 h
[3]; pH 6.3, over 60 hours at 40° C.
  ThT lag time: >60 h
[3]; pH 6.6, over 60 hours at 40° C.
  ThT lag time: >60 h
[3]; pH 6.8, over 60 hours at 40° C.
  ThT lag time: >60 h
[3]; pH 7.0, over 60 hours at 40° C.
  ThT lag time: >60 h
[3]; pH range 5.8-7.0, ThT-stress test and DLS (Table 3)
  stability towards fibrillation and aggregation: stable towards fibrillation and aggregation impacting peptide particle size
[4]; pH 5.8
  Peptide particle size (nm): 3.3 nm
[4]; pH 6.0
  Peptide particle size (nm): 4.0 nm
[4]; pH 6.3
  Peptide particle size (nm): 3.2 nm
[4]; pH 6.6
  Peptide particle size (nm): 3.0 nm
[4]; pH 6.8
  Peptide particle size (nm): 3.7 nm
[4]; pH 7.0
  Peptide particle size (nm): 3.0 nm
hAMYR3
  agonist activity at hAMYR3: agonist activity
